Experimental findings from patent CN115232208A (SHANGHAI JUNSHI BIOSCIENCES CO LTD; JUNMENG BIOSCIENCES CO …, dated 2022) are described below.

The target of assay [1] is T1, 重组人BLyS蛋白 (recombinant human BLyS protein) (human, UniProt Q9Y275 134-285).
T1 construct: Recombinant human BLyS coated on hydrophobic ELISA plates; also called B淋巴细胞刺激因子; BAFF
Description: Blocking ELISA, human BLyS coated, competition with human BR3. A general note: In an ELISA, binding on a coated surface is turned into a signal by an enzyme label.

For assay [2], the target named is 人可溶性BLyS (human soluble BLyS) (human, UniProt Q9Y275 134-285). Description: cell-based or functional assay.

The IC50 is the concentration needed to halve the response being measured.

人可溶性BLyS (human soluble BLyS), sequence (Q9Y275 134-285 limits assumed): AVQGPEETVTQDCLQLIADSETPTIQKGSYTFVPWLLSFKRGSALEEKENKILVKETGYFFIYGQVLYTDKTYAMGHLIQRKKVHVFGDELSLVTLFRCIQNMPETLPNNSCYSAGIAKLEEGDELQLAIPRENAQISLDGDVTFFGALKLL
T1 sequence (Q9Y275 134-285 limits assumed): as above

B1: H482L472 (antibody, human IgG1, kappa, V domains shown)
VH: EVQLVESGGGLVQPGGSLRLSCAASGFTFSDAWMDWVRQAPGKGLEWVGEIRNKANNHATYQAESVKGRFTISRDDSKNSVYLQMNSLKTEDTAVYYCTRAPFDLLVRRGYYIMDYWGQGTLVTVSS
VL: DIQMTQSPSSLSASVGDRVTITCRTSQDISIYLNWYQQKPGKAPKLLIYYTSRLRSGVPSRFSGSGSGTDFTLTISSLQPEDFATYFCQQGSTLPWTFGGGTKLEIKR
notes: also called UBP1213sc (its formulation); UBP1213
On to B1, for which the IC50 in assay [1] was 1.24 µg/mL. Also, the “IC50 of inhibition of the NF-κB signal downstream of human BLyS binding TACI (luciferase reporter gene assay)” value in assay [2] turned out to be 0.0376 µg/mL.

B2: H483L473 (antibody, human IgG1, kappa, V domains shown)
VH: EVQLVESGGGLVKPGGSLRLSCAASGFTFSDAWMDWVRQAPGKGLEWVGEIRNKANNHATYQAESVKGRFTISRDDSKSTVYLQMNSLKTEDTAVYYCTRAPFDLLVRRGYYIMDYWGQGTLVTVSS
VL: DIQMTQSPSSLSASVGDRVTITCRTSQDISIYLNWYQQKPGKAPKLLIYYTSRLRSGVPSRFSGSGSGTDFTFTISSLQPEDIATYFCQQGSTLPWTFGGGTKLEIKR
Regarding B2, the IC50 in assay [1] turned out to be 0.858 µg/mL. For the same molecule, the “IC50 of inhibition of the NF-κB signal downstream of human BLyS binding TACI (luciferase reporter gene assay)” value in assay [2] is 0.0293 µg/mL.

B3: H484L474 (antibody, human IgG1, kappa, V domains shown)
VH: EVQLVESGGGLVQPGGSLRLSCAASGFTFSDAWMDWVRQAPGKGLEWVAEIRNKANNHATYQAESVKGRFTISRDDSKSSVYLQMNSLRAEDTAVYYCTRAPFDLLVRRGYYIMDYWGQGTLVTVSS
VL: DIQMTQSPSSVSASVGDRVTITCRTSQDISIYLNWYQQKPGKAPKLLIYYTSRLRSGVPSRFSGSGSGTDFTLTISSLQPEDFATYFCQQGSTLPWTFGGGTKLEIKR
Take B3: the IC50 in assay [1] worked out at 1.27 µg/mL. Also, the “IC50 of inhibition of the NF-κB signal downstream of human BLyS binding TACI (luciferase reporter gene assay)” value in assay [2] came to 0.0315 µg/mL.
